According to PMC5906480, “Tau Antibody Structure Reveals a Molecular Switch Defining a Pathological Conformation of the Tau Protein” (Scientific Reports, 2018):

Columns and labels:
[1] = tested on: FITC-conjugated tau peptide pS404; assay: Fluorescence polarization direct binding, pS404 peptide; settings: Fab C5.2 675 nM to 0.08 nM; FITC-peptide 300 nM; 25 °C; fluorescence dip around 10 nM Fab due to protein aggregation and fluorophore quenching
Method: (§1) FITC-labeled peptides used in fluorescence polarization experiments were synthesized by Biomatik (Cambridge, ON, Canada). Fab C5.2 affinity was determined using a fluorescence polarization-based direct binding assay with fluorescein isothiocyanate (FITC)-conjugated peptides (Table 1). The FITC-peptide concentration was kept constant at 300 nM while Fab C5.2 was serially diluted from 675 nM to 0.08 nM. Data was collected at 25 °C using excitation and emission wavelengths of 485 nm and 535 nm, respectively. Each experiment was done in a single 96-well plate and calculated in triplicate (buffer: 50 mM Tris, 100 mM NaCl, 0.1% pluronic F-127). The experiments were performed with a DTX 880 Multimode Detector (Beckman Coulter, Jersey City, NJ). Fluorescence data was reduced using multimode detection software and KD values were calculated in GraphPad Prism 7.0 using a nonlinear regression model.
(§2) To accurately measure the C5.2 binding affinity, we performed fluorescence polarization experiments to determine dissociation constants (KD), using the Fab C5.2 and four differentially phosphorylated FITC-conjugated peptides (Table 1). The peptide concentration was kept constant while that of Fab C5.2 was serially diluted from 675 nM to 0.08 nM (Fig. 1d). […] In comparison with a […] IgG molecule, each Fab fragment contains a single binding site so the KD was calculated using a nonlinear model.

[2] = biological target: FITC-conjugated tau peptide pS396/pS404; assay: Fluorescence polarization direct binding, pS396/pS404 peptide; settings: Fab C5.2 675 nM to 0.08 nM; FITC-peptide 300 nM; 25 °C; 50 mM Tris, 100 mM NaCl, 0.1% pluronic F-127; ex 485/em 535 nm; triplicate; nonlinear regression
Method: as §1, §2

[3] = biological target: FITC-conjugated tau peptide pS396; assay: Fluorescence polarization direct binding, pS396 peptide; settings: Fab C5.2 675 nM to 0.08 nM; FITC-peptide 300 nM; 25 °C; 50 mM Tris, 100 mM NaCl, 0.1% pluronic F-127; ex 485/em 535 nm; triplicate; nonlinear regression
Method: as §1, §2

[4] = tested on: FITC-conjugated non-phosphorylated tau peptide; assay: Fluorescence polarization direct binding, non-phosphorylated peptide; settings: Fab C5.2 675 nM to 0.08 nM; FITC-peptide 300 nM; 25 °C; fluorescence dip around 10 nM Fab due to protein aggregation and fluorophore quenching
Method: as §1, §2

B1: Fab C5.2: Fab fragment of C5.2 prepared by papain digestion (antibody, V domains shown)
VH: QVQLQQSDAELVKPGASVKISCKASGYTFTDRTIHWVKQRPEQGLEWIGYIYPGDDSTKYNDMFKAKATLTADKSSNTAYMQLNSLTSDDSAVYFCARRGTMDYWGQGTSVTVSS
VL: DVQMIQSPSSLSASLGDIVTMTCQASQDTSINLNWFQQKPGKAPKLLIYGASNLEDGVPSRFSGSRYGTDFTLTISSLEDEDMATYFCLQHTYLPFTFGSGTKLEIK
In the case of B1, the “Recognition of peptide pS404” value [1] is reported as “does not recognize”, the Kd [2] is reported as 15.4 nM and the Kd [3] is reported as 14.9 nM. The “Recognition of the non-phosphorylated peptide” value [4] was “does not recognize”.
